Experimental data published in publication PMC4046112, “eIF2B is a decameric guanine nucleotide exchange factor with a γ2ε2 tetrameric core” (Nature Communications, 2014).

B2: eIF2Bγ, FLAG-tagged (γ-subunit of yeast eIF2B) (natural protein, S. cerevisiae, UniProt P09032 1-578, looked up)
chain: MSIQAFVFCGKGSNLAPFTQPDFPFQTQNKDSTAATSGDKLNELVNSALDSTVINEFMQHSTRLPKALLPIGNRPMIEYVLDWCDQADFKEISVVAPVDEIELIESGLTSFLSLRKQQFELIYKALSNSNHSHHLQDPKKINFIPSKANSTGESLQKELLPRINGDFVILPCDFVTDIPPQVLVDQFRNRDDNNLAMTIYYKNSLDSSIDKKQQQKQKQQQFFTVYSENEDSERQPILLDVYSQRDVTKTKYLQIRSHLLWNYPNLTVSTKLLNSFIYFCSFELCQLLKLGPQSMSRQASFKDPFTGNQQQQNPPTTDDDEDRNHDDDDDYKPSATSIQPTYFKKKNDLILDPINCNKSLSKVFRDLSRRSWQHSKPREPIGIFILPNETLFIRANNLNAYMDANRFVLKIKSQTMFTKNIQIQSAAIGADAIVDPKCQISAHSNVKMSVLGTQANIGSRCRVAGSLLFPGVHLGDEVILENCIIGPMAKIGSKCKLSNCYIEGHYVVEPKNNFKGETLANVYLDEDEEDELIYDDSVIAGESEIAEETDSDDRSDEDSDDSEYTDEYEYEDDGLFER
notes: eIF2B gamma subunit (GCD1), S. cerevisiae; Bait of all eIF2B complex purifications; also called GCD1-FLAG2-His6; source: S. cerevisiae strains overexpressing eIF2B subunits, purified (anti-FLAG resin, FLAG peptide elution); not shown: FLAG2, C-terminal, kept

What was measured:
[1] = target: T1, eIF2Bγ in the eIF2Bγε core complex (γ2ε2) (Saccharomyces cerevisiae, UniProt P09032); experiment: photo-cross-linking and native nano-electrospray MS; type: binding; details: 10 mM 6-Thio-GTP; UV 365 nm 5 min on ice; 500 mM ammonium acetate; covalent (photo-cross-link); adduct on γ-subunit
T1 construct: gene GCD1; γε core co-overexpressed in yeast, γ-subunit C-terminally FLAG-tagged (GCD1-FLAG2-His6), anti-FLAG purified; GTP adduct seen on dissociated γ; with Translation initiation factor eIF2B subunit epsilon
T1 sequence (P09032 1-578): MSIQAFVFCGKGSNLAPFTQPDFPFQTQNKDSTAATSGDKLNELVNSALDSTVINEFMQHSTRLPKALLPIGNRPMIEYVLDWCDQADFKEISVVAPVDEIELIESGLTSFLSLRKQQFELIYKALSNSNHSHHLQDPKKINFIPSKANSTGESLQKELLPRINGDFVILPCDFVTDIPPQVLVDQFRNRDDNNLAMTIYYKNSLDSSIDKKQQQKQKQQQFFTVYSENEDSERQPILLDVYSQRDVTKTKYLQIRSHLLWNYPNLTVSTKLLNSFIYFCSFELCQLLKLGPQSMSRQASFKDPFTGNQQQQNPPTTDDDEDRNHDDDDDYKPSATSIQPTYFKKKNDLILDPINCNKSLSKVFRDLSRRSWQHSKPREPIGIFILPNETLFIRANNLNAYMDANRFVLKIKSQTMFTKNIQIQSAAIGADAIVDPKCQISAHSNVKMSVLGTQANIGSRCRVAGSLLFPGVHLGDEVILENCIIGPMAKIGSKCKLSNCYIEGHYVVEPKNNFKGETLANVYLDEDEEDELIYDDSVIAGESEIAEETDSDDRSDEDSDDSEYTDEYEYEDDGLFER
T1 sequence (P32501 1-712 partner): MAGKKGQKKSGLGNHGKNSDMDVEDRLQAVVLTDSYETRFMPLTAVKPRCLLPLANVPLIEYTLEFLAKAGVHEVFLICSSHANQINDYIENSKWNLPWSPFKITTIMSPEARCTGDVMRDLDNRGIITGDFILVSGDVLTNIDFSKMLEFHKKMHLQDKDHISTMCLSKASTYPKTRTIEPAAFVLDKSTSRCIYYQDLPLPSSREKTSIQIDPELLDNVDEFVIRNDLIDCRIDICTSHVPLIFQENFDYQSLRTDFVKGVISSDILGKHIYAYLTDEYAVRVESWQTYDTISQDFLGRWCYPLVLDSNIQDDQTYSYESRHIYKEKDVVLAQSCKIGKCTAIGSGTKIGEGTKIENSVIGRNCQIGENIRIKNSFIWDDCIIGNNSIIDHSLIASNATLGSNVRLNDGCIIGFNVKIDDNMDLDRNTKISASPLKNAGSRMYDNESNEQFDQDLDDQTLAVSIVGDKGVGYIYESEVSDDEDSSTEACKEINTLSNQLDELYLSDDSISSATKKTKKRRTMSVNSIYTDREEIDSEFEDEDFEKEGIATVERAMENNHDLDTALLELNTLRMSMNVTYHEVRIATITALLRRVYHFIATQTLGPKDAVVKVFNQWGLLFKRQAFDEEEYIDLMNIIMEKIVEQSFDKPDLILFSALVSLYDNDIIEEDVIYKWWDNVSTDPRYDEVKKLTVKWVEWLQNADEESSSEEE

[2] = target: yeast four subunit complex lacking the α-subunit, eIF2Bβδγε (octamer) (S. cerevisiae) (UniProt P32502); experiment: native MS; FLAG-purified four-subunit eIF2Bβδγε in ammonium acetate, without and with 10% acetonitrile; octamer = two copies of each of four subunits
[3] = target: T2, eIF2Bα (α-subunit of yeast eIF2B) (S. cerevisiae, UniProt P14741 1-305); experiment: cross-linking; BS3-d0/d4 (1:1) added to purified complexes (eIF2:eIF2B, four-subunit eIF2B, eIF2Bγε core), 30 min at 26 °C, trypsin digest, nanoLC-MS/MS, MassMatrix search; the text does not tell which cross-link came from which complex; details: both partners purified
T2 construct: eIF2B alpha subunit (GCN3), S. cerevisiae; Subunit of the purified eIF2B complex, written alone for the subunit pairs; also called eIF2B α-subunit; GCN3
T2 sequence (looked up): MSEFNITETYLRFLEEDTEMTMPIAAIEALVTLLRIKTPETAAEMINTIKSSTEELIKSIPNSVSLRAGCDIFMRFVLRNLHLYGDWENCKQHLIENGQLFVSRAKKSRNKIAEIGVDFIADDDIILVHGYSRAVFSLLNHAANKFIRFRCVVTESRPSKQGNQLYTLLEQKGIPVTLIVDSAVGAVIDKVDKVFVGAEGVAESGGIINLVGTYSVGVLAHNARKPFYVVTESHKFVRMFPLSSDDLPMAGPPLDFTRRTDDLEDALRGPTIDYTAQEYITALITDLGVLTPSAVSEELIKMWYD

[4] = target: B2; experiment: as above; details: both partners purified
[5] = target: T3, eIF2Bδ (δ-subunit of yeast eIF2B) (S. cerevisiae, UniProt P12754 1-651); experiment: as above; details: both partners purified
T3 construct: eIF2B delta subunit (GCD2), S. cerevisiae; Subunit of the purified eIF2B complexes, written alone for the subunit pairs; also called eIF2B δ-subunit; δ/Gcd2
T3 sequence (looked up): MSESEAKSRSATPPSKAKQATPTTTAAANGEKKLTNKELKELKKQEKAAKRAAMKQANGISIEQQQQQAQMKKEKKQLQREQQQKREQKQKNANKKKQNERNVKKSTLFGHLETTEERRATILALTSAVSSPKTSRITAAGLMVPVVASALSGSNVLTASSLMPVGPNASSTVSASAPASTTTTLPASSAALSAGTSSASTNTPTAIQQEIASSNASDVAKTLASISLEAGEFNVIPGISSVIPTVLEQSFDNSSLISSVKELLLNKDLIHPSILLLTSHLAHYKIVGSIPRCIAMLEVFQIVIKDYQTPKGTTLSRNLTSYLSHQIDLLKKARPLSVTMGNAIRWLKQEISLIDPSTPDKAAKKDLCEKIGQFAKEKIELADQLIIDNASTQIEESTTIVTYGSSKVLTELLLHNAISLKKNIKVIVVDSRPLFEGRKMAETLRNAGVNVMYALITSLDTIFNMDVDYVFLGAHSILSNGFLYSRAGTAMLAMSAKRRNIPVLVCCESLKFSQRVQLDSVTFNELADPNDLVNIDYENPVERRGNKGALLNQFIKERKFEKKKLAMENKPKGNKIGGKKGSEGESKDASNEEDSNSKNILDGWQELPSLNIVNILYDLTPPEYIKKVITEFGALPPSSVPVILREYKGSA

[6] = target: eIF2α phosphorylated at Ser51 (subunit of phosphorylated eIF2) (S. cerevisiae) (UniProt P20459); experiment: label-free quantitative proteomics (iBAQ) of the purified complex; eIF2-eIF2B complex purified after phosphorylation of eIF2, trypsin digest, nanoLC-MS/MS, iBAQ intensities compared; eIF2B subunits relative to FLAG-tagged γ (set to 1), eIF2 subunits relative to α
[7] = target: T4, eIF2Bε (ε-subunit of yeast eIF2B, untagged) (S. cerevisiae, UniProt P32501 1-712); experiment: native MS; FLAG-purified four-subunit eIF2Bβδγε in ammonium acetate, without and with 10% acetonitrile; octamer = two copies of each of four subunits; details: both partners purified
T4 construct: eIF2B epsilon subunit (GCD6), S. cerevisiae; Subunit of the purified eIF2B complexes, written alone for the subunit pairs; also called eIF2B ε-subunit; ε/GCD6
T4 sequence (looked up): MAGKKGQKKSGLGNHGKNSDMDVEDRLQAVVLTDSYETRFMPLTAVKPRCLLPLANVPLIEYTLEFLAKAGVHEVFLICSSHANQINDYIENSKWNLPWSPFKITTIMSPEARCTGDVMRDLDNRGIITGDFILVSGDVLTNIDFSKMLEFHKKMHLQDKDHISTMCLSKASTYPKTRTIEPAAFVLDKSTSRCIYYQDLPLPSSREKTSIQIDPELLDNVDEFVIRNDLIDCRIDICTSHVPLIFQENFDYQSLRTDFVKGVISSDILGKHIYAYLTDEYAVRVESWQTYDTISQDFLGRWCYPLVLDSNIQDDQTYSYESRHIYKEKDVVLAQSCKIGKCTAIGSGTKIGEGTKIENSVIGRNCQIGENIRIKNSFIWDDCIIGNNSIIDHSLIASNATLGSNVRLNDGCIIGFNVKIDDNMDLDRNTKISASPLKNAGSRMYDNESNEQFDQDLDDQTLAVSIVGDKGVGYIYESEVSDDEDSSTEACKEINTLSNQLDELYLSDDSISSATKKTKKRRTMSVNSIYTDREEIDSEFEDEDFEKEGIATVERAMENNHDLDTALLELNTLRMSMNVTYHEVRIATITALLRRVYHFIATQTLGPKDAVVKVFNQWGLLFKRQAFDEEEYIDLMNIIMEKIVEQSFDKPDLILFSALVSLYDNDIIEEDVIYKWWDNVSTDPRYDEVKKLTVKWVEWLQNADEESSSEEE

[8] = target: T3, eIF2Bδ (δ-subunit of yeast eIF2B); experiment: as above; details: both partners purified
[9] = target: the molecule itself; experiment: as above

Nc1nc(=S)c2ncn([C@@H]3O[C@H](COP(=O)(O)OP(=O)(O)OP(=O)(O)O)[C@@H](O)[C@H]3O)c2[nH]1 [6-Thio-GTP]
photo-cross-linking and native nano-electrospray MS [1]: After incubation with 6-Thio-GTP and ultraviolet irradiation, the intensity of the GTP-bound population

yeast four subunit complex lacking the α-subunit, eIF2Bβδγε (octamer), P32502 1-381; P12754 1-651; P09032 1-578; P32501 1-712
stoichiometry N [2]: 8

B1: eIF2β (β-subunit of yeast eIF2) (natural protein, S. cerevisiae, UniProt P09064 1-285, looked up)
chain: MSSDLAAELGFDPALKKKKKTKKVIPDDFDAAVNGKENGSGDDLFAGLKKKKKKSKSVSADAEAEKEPTDDIAEALGELSLKKKKKKTKDSSVDAFEKELAKAGLDNVDAESKEGTPSANSSIQQEVGLPYSELLSRFFNILRTNNPELAGDRSGPKFRIPPPVCLRDGKKTIFSNIQDIAEKLHRSPEHLIQYLFAELGTSGSVDGQKRLVIKGKFQSKQMENVLRRYILEYVTCKTCKSINTELKREQSNRLFFMVCKSCGSTRSVSSIKTGFQATVGKRRRM
notes: eIF2 beta subunit (SUI3), S. cerevisiae; Subunit of the purified eIF2 complex, written alone for the subunit pairs; also called eIF2 β-subunit; SUI3
binding result [3]: binds
binding result [4]: binds
binding result [5]: binds
stoichiometry N [6]: 1.08

B2
binding result [7]: binds
binding result [8]: binds

B3: eIF2Bγε core complex (complex, S. cerevisiae)
chain 1: MSIQAFVFCGKGSNLAPFTQPDFPFQTQNKDSTAATSGDKLNELVNSALDSTVINEFMQHSTRLPKALLPIGNRPMIEYVLDWCDQADFKEISVVAPVDEIELIESGLTSFLSLRKQQFELIYKALSNSNHSHHLQDPKKINFIPSKANSTGESLQKELLPRINGDFVILPCDFVTDIPPQVLVDQFRNRDDNNLAMTIYYKNSLDSSIDKKQQQKQKQQQFFTVYSENEDSERQPILLDVYSQRDVTKTKYLQIRSHLLWNYPNLTVSTKLLNSFIYFCSFELCQLLKLGPQSMSRQASFKDPFTGNQQQQNPPTTDDDEDRNHDDDDDYKPSATSIQPTYFKKKNDLILDPINCNKSLSKVFRDLSRRSWQHSKPREPIGIFILPNETLFIRANNLNAYMDANRFVLKIKSQTMFTKNIQIQSAAIGADAIVDPKCQISAHSNVKMSVLGTQANIGSRCRVAGSLLFPGVHLGDEVILENCIIGPMAKIGSKCKLSNCYIEGHYVVEPKNNFKGETLANVYLDEDEEDELIYDDSVIAGESEIAEETDSDDRSDEDSDDSEYTDEYEYEDDGLFER
chain 2: MAGKKGQKKSGLGNHGKNSDMDVEDRLQAVVLTDSYETRFMPLTAVKPRCLLPLANVPLIEYTLEFLAKAGVHEVFLICSSHANQINDYIENSKWNLPWSPFKITTIMSPEARCTGDVMRDLDNRGIITGDFILVSGDVLTNIDFSKMLEFHKKMHLQDKDHISTMCLSKASTYPKTRTIEPAAFVLDKSTSRCIYYQDLPLPSSREKTSIQIDPELLDNVDEFVIRNDLIDCRIDICTSHVPLIFQENFDYQSLRTDFVKGVISSDILGKHIYAYLTDEYAVRVESWQTYDTISQDFLGRWCYPLVLDSNIQDDQTYSYESRHIYKEKDVVLAQSCKIGKCTAIGSGTKIGEGTKIENSVIGRNCQIGENIRIKNSFIWDDCIIGNNSIIDHSLIASNATLGSNVRLNDGCIIGFNVKIDDNMDLDRNTKISASPLKNAGSRMYDNESNEQFDQDLDDQTLAVSIVGDKGVGYIYESEVSDDEDSSTEACKEINTLSNQLDELYLSDDSISSATKKTKKRRTMSVNSIYTDREEIDSEFEDEDFEKEGIATVERAMENNHDLDTALLELNTLRMSMNVTYHEVRIATITALLRRVYHFIATQTLGPKDAVVKVFNQWGLLFKRQAFDEEEYIDLMNIIMEKIVEQSFDKPDLILFSALVSLYDNDIIEEDVIYKWWDNVSTDPRYDEVKKLTVKWVEWLQNADEESSSEEE
notes: eIF2B gamma subunit (GCD1), S. cerevisiae; eIF2B epsilon subunit (GCD6), S. cerevisiae; Seen as γε dimer (predominant) and γ2ε2 tetramer; the self row stands for two γε dimers joined in the tetramer; also called γε dimer; γ2ε2 tetramer; source: S. cerevisiae, purified by the FLAG-tagged γ-subunit (anti-FLAG resin); also formed from eIF2Bβδγε on adding 10% acetonitrile; not shown: FLAG2, …
stoichiometry N [9]: 4
